Substrate in data set [1]: O=C(O)c1ccccc1-c1c2ccc(=O)c([As]3SCCS3)c-2oc2c([As]3SCCS3)c(O)ccc12
The data set can be described thus: Activity at Lyp expressed in Escherichia coli using pNPP as a substrate […].

Substrate in data set [2]: O=C(O)c1ccccc1-c1c2ccc(=O)c([As]3SCCS3)c-2oc2c([As]3SCCS3)c(O)ccc12
The data set can be described thus: Activity at Lyp expressed in Escherichia coli using DADEpYLIPQQG as a substrate […].

B1: Tyrosine-protein phosphatase non-receptor type 22 (Homo sapiens), Q9Y2R2 (protein)
chain: MDQREILQKFLDEAQSKKITKEEFANEFLKLKRQSTKYKADKTYPTTVAEKPKNIKKNRYKDILPYDYSRVELSLITSDEDSSYINANFIKGVYGPKAYIATQGPLSTTLLDFWRMIWEYSVLIIVMACMEYEMGKKKCERYWAEPGEMQLEFGPFSVSCEAEKRKSDYIIRTLKVKFNSETRTIYQFHYKNWPDHDVPSSIDPILELIWDVRCYQEDDSVPICIHCSAGCGRTGVICAIDYTWMLLKDGIIPENFSVFSLIREMRTQRPSLVQTQEQYELVYNAVLELFKRQMDVIRDKHSGTESQAKHCIPEKNHTLQADSYSPNLPKSTTKAAKMMNQQRTKMEIKESSSFDFRTSEISAKEELVLHPAKSSTSFDFLELNYSFDKNADTTMKWQTKAFPIVGEPLQKHQSLDLGSLLFEGCSNSKPVNAAGRYFNSKVPITRTKSTPFELIQQRETKEVDSKENFSYLESQPHDSCFVEMQAQKVMHVSSAELNYSLPYDSKHQIRNASNVKHHDSSALGVYSYIPLVENPYFSSWPPSGTSSKMSLDLPEKQDGTVFPSSLLPTSSTSLFSYYNSHDSLSLNSPTNISSLLNQESAVLATAPRIDDEIPPPLPVRTPESFIVVEEAGEFSPNVPKSLSSAVKVKIGTSLEWGGTSEPKKFDDSVILRPSKSVKLRSPKSELHQDRSSPPPPLPERTLESFFLADEDCMQAQSIETYSTSYPDTMENSTSSKQTLKTPGKSFTRSKSLKILRNMKKSICNSCPPNKPAESVQSNNSSSFLNFGFANRFSKPKGPRNPPPTWNI
By kcat is commonly meant the maximal rate divided by the concentration of active sites. For B1, the turnover number (kcat) stood at 0.49 s⁻¹ in data set [1] and 3.84 s⁻¹ in data set [2].

Source of the values: ChEMBL document CHEMBL1177690, “Target-specific control of lymphoid-specific protein tyrosine phosphatase (Lyp) activity” (Bioorg Med Chem, 2010).
